Experimental data from patent US6797522B1, “Synthetic receptors” (The Trustees of Columbia University in the City of New York, priority 1996, dated 2004).

Legend:
Met Enkephalin = target: T1, Met Enkephalin (Homo sapiens, UniProt P01210); experiment: Color screening assay of bead-bound receptor libraries with Disperse Red-labelled substrate; format: binding; details: Table 5, label = AA1-AA5; for Kd: read-out: KD-MAX; for BOUND: percentage of library beads bound
T1 construct: composed of two pentapeptides Tyr-Gly-Gly-Phe-LeuOH and Tyr-Gly-Gly-Phe-MetOH; purchased Bachem, Inc
Description: (§1) The synthetic receptor library is then assayed to find those members of the library which have the desired interaction with the labeled substrate. In the case where the desired interaction is binding to the substrate, the synthetic receptor library is mixed with a solution of the labeled substrate and those library members that bind to the labeled substrate are selected. This procedure is particularly simple when the synthetic receptor library members are bound to a solid support as shown in Scheme 2. In that case, solid support particles having receptors which bind the labeled substrate accumulate color or fluorescence or radioactivity (depending on the nature of the label used). Depending on the concentration of the labeled substrate used, the assay can be adjusted to detect binding of any desired strength: for example, if the amount of labeled substrate in the presence of the receptor library is adjusted to give a 100 μM concentration of free (unbound) labeled substrate, then assay will only detect template-substrate binding with association constants (k) of (100 μM)^−1 or greater.
(§2) A color assay method was developed for screening receptor library beads. The color dye used is Disperse Red 1 (available from Aldrich Inc.), a neutral diazo dye whose λmax is at 502 nm. Red color in various organic solvents is visible at concentration as low as 100 μM.
(§3) After receptor beads are treated with a substrate which has a color dye attached on it, the bead binding the substrate is stained and can be easily identified in a background of many colorless beads. The stained bead is the removed from the library by a microsyringe, and subjected to decode to identify its structure. The decoding process involves three operations: a) photolysis of the beads, b) silylation of liberated alcohols, c) injection into GC-EC machine. Once identified, the receptor is then resynthesized on large quantities of beads for confirmatory binding studies. […] From this spectrum, the structure of the receptor is identified as C3—OGLY-leu-phe-Ac, C7—OGLY-ala-Lys-Ac.
(§4) Some additional binding studies for Peptidosteroidal receptors with beta-Casomorphinamide and Des-Tyr Leu Enkahphalin, are shown in the following table 5 and are compared to the Leu Enkaphalin and Met Enkaphalin. [drawing 47]

Leu Enkephalin = target: T2, Leu Enkephalin (Homo sapiens, UniProt P01210); experiment: as above; format: binding; details: Table 5, label = AA1-AA5
T2 construct: composed of two pentapeptides Tyr-Gly-Gly-Phe-LeuOH and Tyr-Gly-Gly-Phe-MetOH; purchased Bachem, Inc
Description: as §1, §2, §3, §4

Kd (Met Enkephalin) | BOUND (Met Enkephalin) | Kd (Leu Enkephalin; read-out: KD-MAX) | BOUND (Leu Enkephalin; percentage of library beads bound) | Substance
75 µM | 0.8% |  |  | PRO-THR-LYS-PHE-ALA (PTKFA; printed: PRO-THR-LYS-PHE-ALA)
85 µM | 0.5% |  |  | GLY-PHE-PRO-PRO-LEU (GFPPL; printed: GLY-PHE-PRO-PRO-LEU)
 |  | 81 µM | 0.7% | GLY-ASP-PRO-PRO-LEU (GDPPL; printed: GLY-ASP-PRO-PRO-LEU)
